B1: brome mosaic virus (BMV) capsid protein, wild type (natural protein)
chain: STSGTGKMTRAQRRAAARRNRWTARVQPVIVEPLAAGQGKAIKAIAGYSISKWEASSDAITAKATNAMSITLPHELSSEKNKELKVGRVLLWLGLLPSVAGRIKACVAEKQAQAEAAFQVALAVADSSKEVVAAMYTDAFRGATLGDLLNLQIYLYASEAVPAKAVVVHLEVEHVRPTFDDFFTPVYR
B2: brome mosaic virus (BMV) capsid protein R142A (natural protein)
chain: STSGTGKMTRAQRRAAARRNRWTARVQPVIVEPLAAGQGKAIKAIAGYSISKWEASSDAITAKATNAMSITLPHELSSEKNKELKVGRVLLWLGLLPSVAGRIKACVAEKQAQAEAAFQVALAVADSSKEVVAAMYTDAFAGATLGDLLNLQIYLYASEAVPAKAVVVHLEVEHVRPTFDDFFTPVYR
B3: brome mosaic virus (BMV) capsid protein D148A (natural protein)
chain: STSGTGKMTRAQRRAAARRNRWTARVQPVIVEPLAAGQGKAIKAIAGYSISKWEASSDAITAKATNAMSITLPHELSSEKNKELKVGRVLLWLGLLPSVAGRIKACVAEKQAQAEAAFQVALAVADSSKEVVAAMYTDAFRGATLGALLNLQIYLYASEAVPAKAVVVHLEVEHVRPTFDDFFTPVYR

The series deals with the molecule itself.
Regarding B1, the binding result is reported as “binds”. For B2, the binding result is given as “binds”. To B3 belongs “binds”.

Source of the values: publication PMC2774812 (Journal of molecular biology, 2009).
